Experiment [1] deals with human α2β1 integrin on human platelets (human) (UniProt P17301). In words: FACS of human blood platelets, secondary antibody only, without primary antibody (negative control).
Experiment [2] concerns the target macaca fascicularis α2β1 integrin on platelets (macaca fascicularis). In words: FACS of macaca blood platelets, secondary antibody only, without primary antibody (negative control).

human α2β1 integrin on human platelets (human), sequence (P17301 30-1181 limits assumed, chain 1 of 2): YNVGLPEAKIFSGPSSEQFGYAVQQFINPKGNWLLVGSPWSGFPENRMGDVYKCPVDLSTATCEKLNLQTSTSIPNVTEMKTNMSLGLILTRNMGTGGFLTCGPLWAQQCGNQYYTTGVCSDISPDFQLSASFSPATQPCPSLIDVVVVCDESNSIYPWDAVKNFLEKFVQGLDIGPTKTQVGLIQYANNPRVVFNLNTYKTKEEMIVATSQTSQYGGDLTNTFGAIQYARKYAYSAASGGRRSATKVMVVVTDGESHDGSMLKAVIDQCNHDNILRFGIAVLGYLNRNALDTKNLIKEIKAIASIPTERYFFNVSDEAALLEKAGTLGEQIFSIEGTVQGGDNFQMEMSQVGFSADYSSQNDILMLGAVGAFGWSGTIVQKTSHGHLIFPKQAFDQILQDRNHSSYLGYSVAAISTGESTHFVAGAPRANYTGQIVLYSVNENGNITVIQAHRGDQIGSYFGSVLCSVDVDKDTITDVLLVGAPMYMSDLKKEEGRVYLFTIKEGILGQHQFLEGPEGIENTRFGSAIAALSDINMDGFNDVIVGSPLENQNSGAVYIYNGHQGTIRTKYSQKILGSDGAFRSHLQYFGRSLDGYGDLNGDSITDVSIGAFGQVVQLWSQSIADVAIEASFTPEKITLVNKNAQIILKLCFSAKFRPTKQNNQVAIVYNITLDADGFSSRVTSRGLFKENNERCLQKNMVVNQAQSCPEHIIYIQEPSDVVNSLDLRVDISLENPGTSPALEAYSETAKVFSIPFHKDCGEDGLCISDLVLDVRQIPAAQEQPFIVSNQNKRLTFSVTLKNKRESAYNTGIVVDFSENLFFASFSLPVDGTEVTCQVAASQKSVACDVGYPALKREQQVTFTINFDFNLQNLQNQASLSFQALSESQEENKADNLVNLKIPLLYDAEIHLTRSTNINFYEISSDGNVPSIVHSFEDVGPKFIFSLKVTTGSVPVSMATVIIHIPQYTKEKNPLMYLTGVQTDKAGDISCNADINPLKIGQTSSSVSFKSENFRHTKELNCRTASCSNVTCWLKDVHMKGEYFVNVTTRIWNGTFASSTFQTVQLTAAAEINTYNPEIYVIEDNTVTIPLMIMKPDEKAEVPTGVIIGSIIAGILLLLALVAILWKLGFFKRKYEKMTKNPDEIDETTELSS
human α2β1 integrin on human platelets (human), sequence (chain, as listed by the source limits assumed, chain 2 of 2): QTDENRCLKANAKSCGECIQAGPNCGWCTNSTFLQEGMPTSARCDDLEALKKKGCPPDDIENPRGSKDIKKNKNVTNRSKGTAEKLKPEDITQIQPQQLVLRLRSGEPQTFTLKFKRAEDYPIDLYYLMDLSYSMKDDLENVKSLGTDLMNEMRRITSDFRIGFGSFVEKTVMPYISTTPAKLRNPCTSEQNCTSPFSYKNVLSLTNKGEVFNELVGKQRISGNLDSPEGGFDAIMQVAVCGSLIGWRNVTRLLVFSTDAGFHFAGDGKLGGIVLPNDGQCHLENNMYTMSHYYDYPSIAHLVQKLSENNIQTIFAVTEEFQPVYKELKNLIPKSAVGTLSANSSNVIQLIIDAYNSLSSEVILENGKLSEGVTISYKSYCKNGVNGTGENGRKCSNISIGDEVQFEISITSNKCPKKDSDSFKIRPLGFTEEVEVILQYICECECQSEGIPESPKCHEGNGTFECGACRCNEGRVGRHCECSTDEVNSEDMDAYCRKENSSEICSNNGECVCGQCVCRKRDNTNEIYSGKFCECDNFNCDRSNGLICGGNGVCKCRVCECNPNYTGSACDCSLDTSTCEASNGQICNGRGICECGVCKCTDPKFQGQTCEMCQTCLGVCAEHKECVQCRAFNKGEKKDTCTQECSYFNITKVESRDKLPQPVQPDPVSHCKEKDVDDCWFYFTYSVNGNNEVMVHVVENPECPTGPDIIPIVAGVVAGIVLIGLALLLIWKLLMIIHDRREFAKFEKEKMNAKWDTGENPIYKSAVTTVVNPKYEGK

For the substance anti mouse-IgG-PE (antibody), the % positives was 0.5% in experiment [1] and 0.6% in experiment [2].

(Values after patent publication US20130156786A1.)
